Measured values published in FireProtDB (doi:10.1021/bi00548a004).

B1: Tryptophan synthase alpha chain, P0A877 (parent)
chain: MERYESLFAQLKERKEGAFVPFVTLGDPGIEQSLKIIDTLIEAGADALELGIPFSDPLADGPTIQNATLRAFAAGVTPAQCFEMLALIRQKHPTIPIGLLMYANLVFNKGIDEFYAQCEKVGVDSVLVADVPVEESAPFRQAALRHNVAPIFICPPNADDDLLRQIASYGRGYTYLLSRAGVTGAENRAALPLNHLVAKLKEYNAAPPLQGFGISAPDQVKAAIDAGAAGAISGSAIVKIIEQHINEPEKMLAALKVFVQPMKAATRS

Variants of: B1
Conditions: Escherichia coli (strain K12), pH 7.8, Thermal, DSC, Sodium phosphate 1 mM, reversible: yes, structure 1WQ5, whole UniProt chain shown

| Variant | ddG of mutation (higher = less stable) (57.8 °C, EDTA 0.2 mM) [kcal/mol] | heat capacity change of unfolding (57.8 °C, EDTA 0.2 mM) [kcal/mol/K] | Tm [°C] | change of melting temperature, mutant - wild type (higher = more stable) [°C] | heat capacity change of unfolding [kcal/mol/K] | unfolding enthalpy (calorimetric) [kcal/mol] | unfolding enthalpy (van 't Hoff) [kcal/mol] |
| --- | --- | --- | --- | --- | --- | --- | --- |
| G211R | -0.1 | 2.8 | 58 | 0.2 | 2.8 | 111 | 113 |
| G211E | -0.6 | 2.7 | 59.6 | 1.8 | 2.7 | 109 | 107 |
